This is an account of results in patent publication US20220025029A1 (Regeneron, published 2022).

The labels stand for the following.
B1: H2M1233N (antibody, mouse IgG2, V domains shown)
VH: QVVLVESGGGVVQPGRSLRLSCAASGFTFSSYGMHWVRQAPGKGLEWVAVIWYDGSNKYYVDSVKGRFTISRDNSNNTIYLQMNSLRAEDTAVYYCARSLIPVAGTDPIFGYWGQGTLVTVSS
VL: DIQMTQSPSTLSASVGDRVTITCRASQSVSSWLAWYQQKPGKAPKLLIFKASGLESGVPFRFSGSGSGTEFTLTISSLQPDDFATYYCQQYNTYSPTFGQGTKVEIK
notes: chimeric: human variable domains, mouse IgG2 Fc (H2M prefix)
B2: H2M1242N (antibody, mouse IgG2, V domains shown)
VH: EVQLVESGGGLVRPGGSLRLSCAASGFTFTSYAMNWVRQAPGKGLEWVSSISSYSSYIYIADSVKGRFTLSRDNAKNSLYLQMHSLRPEDTAVYFCAREGYSAYSYFDFWGRGTLVTVSS
VL: DIQMTQSPSTLSASVGDRVTITCRASQSVISWLAWYQQKPGKAPKLLIHRASSLESGVPSRFSGSGSGTEFTLTISGLQPDDFATYYCQQYNTYFPTFGQGTKVEVK
notes: as for B1
B3: H2M1237N (antibody, mouse IgG2, V domains shown)
VH: QVVLVESGGGVVQPGRSLRLSCAASGFTFSSYGMHWVRQAPGKGLEWVAVIWYDGSIKYYADSVKGRFTISRDNSNNTIYLQMNSLRAEDTAVYYCARALIPVAGTDPIFGYWGQGTLVTVSS
VL: DIQMTQSPSTLSASVGDRVTITCRASQSVSSWLAWYQQKPGKAPKLLIFKTSGLESGVPFRFSGSGSGTEFTLTISSLQPDDFATYYCQQYNTYSPTFGQGTKVEIK
notes: as for B1
B4: H1M1241N (antibody, V domains shown)
VH: EVQLVESGGGLVKPGGSLRLSCAASGFTFSSYSMNWVRQAPGKGLEWVSSISSRSSYIYYADSVKGRFTISRDNAKNSLYLQMNSLRAEDTAVYYCARDHIVVVPGASYYYYGMDVWGQGTTVTVSS
VL: DIQMTQSPSSLSASVGDRVTITCRASQGIRNDLGWYQQKPGKAPKRLISAASSLQSGVPSRFSGSGSGTEFTLTISSLQPEDFATYYCLQHNSYPLTFGGGTKVEIK
notes: chimeric: human variable domains, mouse constant domains (H1M prefix, mouse Fc)
B5: H1M1234N (antibody, V domains shown)
VH: QVQLQQSGPGLVKSSQTLSLTCAISGDSVSSNSVAWNWIRQSPSRGLEWLGRTYYRSKWYNDYAVSVKSRININPDTSKNHFSLQLNSVTPEDTAVYFCARAWNWYYLDYWGQGTLVTVSS
VL: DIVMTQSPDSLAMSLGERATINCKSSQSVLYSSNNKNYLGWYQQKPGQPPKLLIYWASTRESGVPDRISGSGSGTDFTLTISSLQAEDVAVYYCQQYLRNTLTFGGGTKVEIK
notes: as for B4
B6: H4H2594S (antibody, human IgG4, V domains shown)
VH: EVQLVESGGGLVKPGGSLRLSCAASGFTFSDYYMNWIRQAPGKGLEWVSYISSSGSSIYYADSVKGRFTISRDNAKNSLYLLMNSLRAEDTAVYYCARDGKYNSSPGDYWGQGTLVTVSS
VL: DIQMTQSPSSLSASVGDRVTIACRASQGISNYLAWFQQKPGKAPKSLIYAASSLQSGVPSKFSGSGSGTDFTLTISSLQPEDFATYYCQQYNSYPLTFGGGTKVEIKR
notes: human IgG4 Fc (H4H prefix)
B7: H4H2607B (antibody, human IgG4, V domains shown)
VH: EVQLVESGGGLVKPGGSLRLSCAASGFTFSDYYMNWIRQAPGKGLEWISYLSSSGSATYYADSVKGRFTISRDNAKNSLYLQMNSLRAEDTAVYYCARDGKYNTVAGDYWGQGTTVTVSS
VL: DIQLTQSPSSLSASVGDRVTITCRASQGIRNDLGWYQQKPGKAPKRLIYAASSLQSGVPSRFSGSGSGTEFTLTISSLQPEDFATYYCLQHNSYPYTFGQGTKVEIKR
notes: human IgG4 Fc (H4H prefix)
B8: H2M1236N (antibody, mouse IgG2, V domains shown)
VH: QVQLQESGPGLVKPSETLSLTCTVSGGSISNYYWSWIRQPPGKGLEWIGYIYYSGRTNYNPSLKSRVTISVDTSKNQFSLKLRSVTAADTAVYYCARHRITRTADSFDYWGQGTLVTVSS
VL: DIQMTQSPSSLSASVGDRVTITCQASQDITNYLNWYQQKPGKAPKLLIYDASNLETGVPSRFSGSGSGTDFTFTISSLQPEDVATFYCHQYGDLPYTFGQGTKLEIK
notes: as for B1
B9: H4H2797P (antibody, human IgG4, V domains shown)
VH: QVQLVESGGGVVLPGRSLRLSCAASGFTFSSYLMYWVRQAPGKGLEWVAVIWYDGSNKFYGDSVKGRFTISRDNSKNTLYLQMNSLRAEDTAVYYCARDNGNSGYEDSWNAFDIWGQGTMVTVSS
VL: DIQMTQSPSSLSASVGDRVTITCRASQDIYNYLAWFQQKPGKAPKSLIYAASSLQTGVPSQFSGSGSGTDFTLTISSLQPEDFATYYCQQYNNYPFTFGPGTKVDIK
notes: human IgG4 Fc (H4H prefix)
B10: H1M1230N (antibody, V domains shown)
VH: EVQLVESGGGLVQPGGSLRLSCTASGFIFSNFWMTWVRQAPGKGLEWVANIKQDGSETYCVDSVKGRFTISRDHAKNSLFLQMNSLRAEDTAVYYCARGAGTIYYYGMDVWGQGTTVIVSS
VL: DIQMTQSPSSVSASVGDRLTITCRASQDISSWLTWYQQKPGKAPNLLIYAASGLQSGVPSRFSGSGSGTDFTLTISNLQPEDFATYYCQQANSFPLTFGQGTRLEIK
notes: as for B4
B11: H4H2597B (antibody, human IgG4, V domains shown)
VH: EVQLVESGGGLVQPGGSLRLSCAVSGFTFSNYAMNWVRQAPGKGLEWVSVISDSGRSTYYADSVKGRFTISRDNSKNTLYLQMNSLRAEDTAVYFCAKRYNWNLHYFDYWGQGTTVTVSS
VL: EIVLTQSPDFQSVTPKEKVTITCRASQSIGGSLHWYQQKPDQSPKLLIKYASQSFSGVPSRFSGSGSGTDFTLTINSLEAEDAATYYCLQSSSLRTFGQGTKVEIKR
notes: human IgG4 Fc (H4H prefix)
B12: H4H2606B (antibody, human IgG4, V domains shown)
VH: EVQLVESGGGLVKPGGSLRLSCAASGFTFSDYYMNWIRQAPGKGLEWVSYISSSGNSIYYADSVKGRFTISRDNAKNSLFLQMSSLRAEDTAVYYCARDGRYNDRRRGYYWGQGTLVTVSS
VL: EIVMTQSPDFQSVTPKEKVTITCRASQSIGSSLHWYQQKPDQSPKLLIKYASQSFSGVPSRFSGSGSGTDFTLTINSLEAEDAATYYCLQSSSLRTFGQGTKVEIKR
notes: human IgG4 Fc (H4H prefix)
B13: H4H3467D (bispecific antibody, V domains shown)
VH 1: EVQLVESGGGLAQPGGSLRLSCAASGFTFNNYAMTWVRQAPGKGLDWVSAISDSGRSTFSADSVKGRFTISRDNSKNTLYLQMDSLRAEDTALYYCAKHRNWNYPVFDYWGQGTLVTVSS
VH 2: EVQLVESGGGLVKPGGSLRLSCAASGFTFRNYNINWVRQAPGKGLEWVSLISGSSSYIYYADSVKGRFTVSRDNAKNSLYLQMNSLRAEDTAVYYCARRTLSYYVMDVWGQGTTVTVSS
VL: DIQLTQSPSFLSASVGDRVTITCWASQGISSYLAWYQQKPGKAPKLLIYSASTLQSGVPSRFSGSGSGTEFTLTISSLQPEDFATYYCQQLNSYPFTFGPGTKVDIK
notes: Bi-specific with a common kappa light chain on both Fab arms; human IgG4 Fc by the H4H prefix
B14: H4H8751D (bispecific antibody, V domains shown)
VH 1: EVQLVESGGGLVQPGGSLRLSCAASGFTFSSYAMSWVRQAPGKGLEWVSAISGRGYNADYADSVKGRFTISRDNSKNTLYLQMNSLRAEDTAVYYCAKLEYFDYWGQGTLVTVSS
VH 2: EVQLVESGGGLVKPGGSLRLSCAASGFTFRNYNINWVRQAPGKGLEWVSLISGSSSYIYYADSVKGRFTVSRDNAKNSLYLQMNSLRAEDTAVYYCARRTLSYYVMDVWGQGTTVTVSS
VL: DIQMTQSPSTLSASVGDRVTITCRASQSISSWLAWYQQKPGKAPKLLIYKASSLESGVPSRFSGSGSGTDFTLTISSLRPEDFATYYCQQYNSYPLTFGGGTKVEIK
notes: as for B13

The target of one test is T1, natural Fel d1 (Indoor Biotech, #NA-FD1-2) (cat, UniProt P30438 23-92; P30440 18-109).
T1 construct: Bought natural heterodimeric glycoprotein, chains linked by disulfide bonds; also called nFel d1; nFel d 1
T1 sequence (P30438 other isoform, or with tags, fused parts or gaps, chain 1 of 2): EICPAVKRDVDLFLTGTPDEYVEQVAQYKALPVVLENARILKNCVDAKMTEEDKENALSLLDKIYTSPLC
T1 sequence (P30440 18-109, chain 2 of 2): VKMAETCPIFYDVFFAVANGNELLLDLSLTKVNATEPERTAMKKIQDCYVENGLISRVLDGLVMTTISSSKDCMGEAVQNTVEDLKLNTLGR
Description: SPR (Biacore), mAb captured, natural Fel d1 injected, 25 C.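 Further: rate constants obtained by fitting association and dissociation phases to a one-to-one binding model, with Kd and half-life derived from those rate constants.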
B1 gave a Kd of 1.4 nM, an off-rate (koff) of 0.000353 s⁻¹, a kon of 253000 M⁻¹ s⁻¹ and a t1/2 of 33 min.
The like results for B2 were, in that order, 3.14 nM, 0.000604 s⁻¹, 192000 M⁻¹ s⁻¹ and 19 min.
The like results for B3 were, in that order, 0.982 nM, 0.000276 s⁻¹, 281000 M⁻¹ s⁻¹ and 42 min.
For B4, in that order: 3.63 nM, 0.000662 s⁻¹, 182000 M⁻¹ s⁻¹ and 17 min.
Take B5: the equilibrium dissociation constant (Kd) was determined as 18.3 nM, the koff was 0.00679 s⁻¹, the kon was found to be 371000 M⁻¹ s⁻¹ and the t1/2 is 2 min.
For B6, in that order: 0.878 nM, 0.000965 s⁻¹, 1.1e+06 M⁻¹ s⁻¹ and 12 min.
The like results for B7 were, in that order, 0.307 nM, 0.00091 s⁻¹, 2.97e+06 M⁻¹ s⁻¹ and 13 min.
In turn, B8 yielded a Kd of 4.55 nM, a koff of 0.00142 s⁻¹, a kon of 312000 M⁻¹ s⁻¹ and a t1/2 of 8 min.
In the case of B9, the Kd was 35.4 nM, the koff turned out to be 0.00713 s⁻¹, the association rate constant (kon) amounted to 202000 M⁻¹ s⁻¹ and the t1/2 was 2 min.
For B10, in that order: 3.37 nM, 0.000869 s⁻¹, 258000 M⁻¹ s⁻¹ and 13 min.
The like results for B11 were, in that order, 0.65 nM, 0.0015 s⁻¹, 2.31e+06 M⁻¹ s⁻¹ and 8 min.
For B12, in that order: 0.765 nM, 0.000707 s⁻¹, 924000 M⁻¹ s⁻¹ and 16 min.

The next test has as its target T1, natural Fel d1 (Indoor Biotech, …). The test can be described thus: SPR (Biacore 2000), mAb captured via anti-human Fc, nFel d 1 injected, 25 C.
As to B13, the “600 nM nFel d 1 Bound (RU)” value stood at 35 RU, binding was put at a Kd of 0.25 nM, the koff stood at 0.000712 s⁻¹ and the kon amounted to 2.85e+06 M⁻¹ s⁻¹. Besides, the t1/2 worked out at 16 min.
For B14, in that order: 30 RU, 0.347 nM, 0.00062 s⁻¹, 1.79e+06 M⁻¹ s⁻¹ and 19 min.
